Reference: patent US20140030295A1

Target: Full-length human SIRT1 (His-tagged) (human) (UniProt Q96EB6)
Test: cell-based or functional assay

Chain of Full-length human SIRT1 (His-tagged) (human) (Q96EB6 2-747): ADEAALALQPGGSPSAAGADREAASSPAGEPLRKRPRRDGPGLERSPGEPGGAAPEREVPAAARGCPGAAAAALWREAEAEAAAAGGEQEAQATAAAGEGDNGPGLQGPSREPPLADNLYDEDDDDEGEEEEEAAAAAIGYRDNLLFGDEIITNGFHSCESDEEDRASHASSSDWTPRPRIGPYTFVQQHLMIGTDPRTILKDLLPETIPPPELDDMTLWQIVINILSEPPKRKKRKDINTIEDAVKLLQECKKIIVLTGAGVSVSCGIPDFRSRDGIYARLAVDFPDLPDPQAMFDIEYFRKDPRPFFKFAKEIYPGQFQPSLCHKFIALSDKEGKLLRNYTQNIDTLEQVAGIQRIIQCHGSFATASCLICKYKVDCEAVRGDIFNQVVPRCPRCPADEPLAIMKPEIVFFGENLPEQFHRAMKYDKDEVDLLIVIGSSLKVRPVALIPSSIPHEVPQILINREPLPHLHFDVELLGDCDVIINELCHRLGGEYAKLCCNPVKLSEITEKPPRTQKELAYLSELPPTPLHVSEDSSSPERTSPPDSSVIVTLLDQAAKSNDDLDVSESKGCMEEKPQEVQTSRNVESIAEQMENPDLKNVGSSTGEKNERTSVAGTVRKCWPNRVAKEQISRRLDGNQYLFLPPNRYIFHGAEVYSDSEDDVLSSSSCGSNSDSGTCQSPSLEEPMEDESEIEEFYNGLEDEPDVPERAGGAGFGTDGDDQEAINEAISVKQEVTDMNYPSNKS

Question: How did the Tat concentration required for half maximal inhibition (IC50) of SIRT1; fluorescent deacetylation assay with acetylated p53 peptide (aa 379-382) turn out when synthetic Tat (aa 1-72) was run?
Answer: 3.5 µM
